Target: T1, monomeric human 4-1BB (human, UniProt Q07011 24-186)
T1 construct: SPR analyte or ligand
Experiment: SPR with monomeric human 4-1BB

B1: parental anti-4-1BB sdAb antibody conjugated with IgG1 Fc fragment (Fc fusion)
chain: QVQLQESGGGLVQPGGSLRLSCAASGYTYSSNCMGWFRQAPGKGLEGVAVICTGGGSPSYADSVKGRFTISRDNAKNTLYLQMNSLRAEDTAVYYCAADLLRAGTPLSSYEFNYWGQGTLVTVSS
notes: also called 4-1BB sdAb-Fc; not shown: IgG1 Fc fragment
Work on B1 yielded a koff of 0.000168 s⁻¹.
